B1: hDAPK2 CD + ARD wild type (pETM14 construct for SEC, SAXS, CaM pull-down and FA) [human] / itself (parent)
chain: NMEPFKQQKVEDFYDIGEELGSGQFAIVKKCREKSTGLEYAAKFIKKRQSRASRRGVSREEIEREVSILRQVLHHNVITLHDVYENRTDVVLILELVSGGELFDFLAQKESLSEEEATSFIKQILDGVNYLHTKKIAHFDLKPENIMLLDKNIPIPHIKLIDFGLAHEIEDGVEFKNIFGTPEFVAPEIVNYEPLGLEADMWSIGVITYILLSGASPFLGDTKQETLANITAVSYDFDEEFFSQTSELAKDFIRKLLVKETRKRLTIQEALRHPWITPVDNQQAMVRRESVVNLENFRKQYVRRRWKLSFSIVSLCNHLTR

The variants in the experiment derive from B1. As to the kind of experiment: analytical size-exclusion chromatography (SEC). Particulars: with itself.
Regarding chain 1 R48E R51E R54E R55E, the screen value is 4410 kDa.
